One data set has as its target APE1 (Homo sapiens) (UniProt P27695). Briefly: fluorescence polarization. Conditions: 5 nM DNA, no Mg2+ listed, THF at nt 15 of strand 1 (N), EMSA: 20 mM HEPES pH 7.9, 1 mM DTT, 30 mM NaCl, 0.03% NP-40, 10% glycerol, 1 ug poly(dI-dC), 20 min room temperature, FP: 10 mM HEPES pH 7.5, 50 mM KCl.
The next data set addresses T1, EEPD1 (Homo sapiens) (UniProt Q7L9B9).
T1 sequence: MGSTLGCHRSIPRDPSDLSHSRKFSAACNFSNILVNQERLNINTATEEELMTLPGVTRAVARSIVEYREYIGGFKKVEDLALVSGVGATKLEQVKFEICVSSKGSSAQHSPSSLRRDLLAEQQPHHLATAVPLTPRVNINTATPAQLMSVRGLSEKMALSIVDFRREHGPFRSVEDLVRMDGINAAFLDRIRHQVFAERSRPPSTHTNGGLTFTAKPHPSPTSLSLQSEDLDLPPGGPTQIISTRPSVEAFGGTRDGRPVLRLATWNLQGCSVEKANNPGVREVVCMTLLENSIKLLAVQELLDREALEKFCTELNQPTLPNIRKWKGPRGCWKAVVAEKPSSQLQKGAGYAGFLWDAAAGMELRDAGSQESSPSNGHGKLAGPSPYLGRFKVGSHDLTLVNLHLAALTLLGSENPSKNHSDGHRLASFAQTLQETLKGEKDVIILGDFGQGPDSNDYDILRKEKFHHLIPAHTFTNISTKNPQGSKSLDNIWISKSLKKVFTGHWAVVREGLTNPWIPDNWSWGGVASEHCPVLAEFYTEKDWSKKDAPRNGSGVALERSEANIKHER
Briefly: fluorescence polarization. Conditions: 5 nM DNA, no Mg2+ listed, THF at nt 15 of strand 1 (N), EMSA: 20 mM HEPES pH 7.9, 1 mM DTT, 30 mM NaCl, 0.03% NP-40, 10% glycerol, 1 ug poly(dI-dC), 20 min room temperature, FP: 10 mM HEPES pH 7.5, 50 mM KCl. Background: Fluorescence polarisation rises when a labelled molecule tumbles more slowly, as on binding a larger partner.

Another data set deals with T2, EEPD1 (Homo sapiens, UniProt Q7L9B9 1-569).
T2 sequence: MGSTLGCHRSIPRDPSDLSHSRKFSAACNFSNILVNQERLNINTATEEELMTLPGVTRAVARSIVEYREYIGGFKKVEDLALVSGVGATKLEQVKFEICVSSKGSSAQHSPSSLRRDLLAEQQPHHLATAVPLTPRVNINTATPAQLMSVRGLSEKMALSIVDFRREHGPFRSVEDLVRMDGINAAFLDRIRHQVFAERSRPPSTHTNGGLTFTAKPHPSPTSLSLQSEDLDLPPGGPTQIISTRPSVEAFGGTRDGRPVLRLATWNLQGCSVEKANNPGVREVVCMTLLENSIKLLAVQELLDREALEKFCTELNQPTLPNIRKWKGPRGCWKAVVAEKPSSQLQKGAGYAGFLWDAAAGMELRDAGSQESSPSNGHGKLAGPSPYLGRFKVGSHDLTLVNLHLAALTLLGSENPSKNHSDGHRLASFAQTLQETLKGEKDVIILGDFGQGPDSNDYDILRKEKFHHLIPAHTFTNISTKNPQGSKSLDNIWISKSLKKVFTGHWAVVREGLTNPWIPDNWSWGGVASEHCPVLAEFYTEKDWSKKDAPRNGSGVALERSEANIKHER
Briefly: EMSA; 1 ug poly(dI-dC); less than THF fork; EMSA: 20 mM HEPES pH 7.9, 1 mM DTT, 30 mM NaCl, 0.03% NP-40, 10% glycerol, 1 ug poly(dI-dC), 20 min room temperature; FP: 10 mM HEPES pH 7.5, 50 mM KCl, 5 nM DNA, 0-1000 nM protein. The following applies: protein: recombinant; tags: FLAG; label: 32P 5'-end; fork 1:2 1:3 2:4.

APE1 (Homo sapiens), sequence (P27695 whole entry): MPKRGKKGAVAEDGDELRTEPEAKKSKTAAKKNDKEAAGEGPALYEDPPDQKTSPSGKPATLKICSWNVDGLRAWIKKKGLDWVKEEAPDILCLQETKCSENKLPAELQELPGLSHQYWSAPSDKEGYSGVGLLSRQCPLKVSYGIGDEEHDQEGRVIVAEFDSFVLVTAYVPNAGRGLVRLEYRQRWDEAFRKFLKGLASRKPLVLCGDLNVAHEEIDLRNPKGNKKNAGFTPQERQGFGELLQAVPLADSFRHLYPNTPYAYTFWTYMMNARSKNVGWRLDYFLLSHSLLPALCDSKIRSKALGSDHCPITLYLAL

With “CATGCAGCTGATGCNTACAACACACTGTG / TTTTCCCCCCCCCCCGCATCAGCTGCATG / CACAGTGTGTTGTA / GGGGGGGGGGAAAA”, the Kd (commonly the concentration at which binding is half-saturated) in the data set with APE1 (Homo sapiens) worked out at 21 nM; in the data set with EEPD1 (Homo sapiens), 81 nM.

B1: fork DNA without abasic site (Oligos D, F, G, H) (structured_DNA)
DNA 1: CATGCAGCTGATGCGTACAACACACTGTG
DNA 2: TTTTCCCCCCCCCCCGCATCAGCTGCATG
DNA 3: CACAGTGTGTTGTA
DNA 4: GGGGGGGGGGAAAA
Consider B1, for which the binding result with EEPD1 is on record as “binds”.

The record behind these values is PMC9846428, “EEPD1 promotes repair of oxidatively-stressed replication forks”.
